Test results taken from the supplement of paper PMC5998384.

What was measured:
HeLa Kyoto [1] = test: solubility in G1/S (NP-40 vs SDS abundance) (log2 ratio); higher = more soluble; details: cell cycle stage: G1/S
HeLa Kyoto [2] = test: solubility change mitosis vs G1/S (difference of NP-40 vs SDS log2 ratios) (log2 ratio difference); higher = more soluble in mitosis
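For solubility change mitosis vs G1/S (difference of NP-40 vs SDS log2 ratios) in this document: synchronized HeLa Kyoto cells (double thymidine block for G1/S, nocodazole release for mitosis), protein amounts in NP-40 versus SDS lysates quantified by mass spectrometry, three biological replicates.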
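For solubility in G1/S (NP-40 vs SDS abundance) in this document: HeLa Kyoto cells arrested at G1/S by double thymidine block, proteins quantified by TMT10plex mass spectrometry in mild NP-40 versus SDS extracts, three biological replicates.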

Sequence | solubility in G1/S (log2) (HeLa Kyoto [1]) | solubility change mitosis (log2) (HeLa Kyoto [2])
MAAAAASGAGGAAGAGTGGAGPAGRLLPPPAPGSPAAPAAVSPAAGQPRPPAPASRGPMPARIGYYEIDRTIGKGNFAVVKRATHLVTKAKVAIKIIDKTQLDEENLKKIFREVQIMKMLCHPHIIRLYQVMETERMIYLVTEYASGGEIFDHLVAHGRMAEKEARRKFKQIVTAVYFCHCRNIVHRDLKAENLLLDANLNIKIADFGFSNLFTPGQLLKTWCGSPPYAAPELFEGKEYDGPKVDIWSLGVVLYVLVCGALPFDGSTLQNLRARVLSGKFRIPFFMSTECEHLIRHMLVLDPNKRLSMEQICKHKWMKLGDADPNFDRLIAECQQLKEERQVDPLNEDVLLAMEDMGLDKEQTLQSLRSDAYDHYSAIYSLLCDRHKRHKTLRLGALPSMPRALAFQAPVNIQAEQAGTAMNISVPQVQLINPENQIVEPDGTLNLDSDEGEEPSPEALVRYLSMRRHTVGVADPRTEVMEDLQKLLPGFPGVNPQAPFLQVAPNVNFMHNLLPMQNLQPTGQLEYKEQSLLQPPTLQLLNGMGPLGRRASDGGANIQLHAQQLLKRPRGPSPLVTMTPAVPAVTPVDEESSDGEPDQEAVQSSTYKDSNTLHLPTERFSPVRRFSDGAASIQAFKAHLEKMGNNSSIKQLQQECEQLQKMYGGQIDERTLEKTQQQHMLYQQEQHHQILQQQIQDSICPPQPSPPLQAACENQPALLTHQLQRLRIQPSSPPPNHPNNHLFRQPSNSPPPMSSAMIQPHGAASSSQFQGLPSRSAIFQQQPENCSSPPNVALTCLGMQQPAQSQQVTIQVQEPVDMLSNMPGTAAGSSGRGISISPSAGQMQMQHRTNLMATLSYGHRPLSKQLSADSAEAHSLNVNRFSPANYDQAHLHPHLFSDQSRGSPSSYSPSTGVGFSPTQALKVPPLDQFPTFPPSAHQQPPHYTTSALQQALLSPTPPDYTRHQQVPHILQGLLSPRHSLTGHSDIRLPPTEFAQLIKRQQQQRQQQQQQQQQQEYQELFRHMNQGDAGSLAPSLGGQSMTERQALSYQNADSYHHHTSPQHLLQIRAQECVSQASSPTPPHGYAHQPALMHSESMEEDCSCEGAKDGFQDSKSSSTLTKGCHDSPLLLSTGGPGDPESLLGTVSHAQELGIHPYGHQPTAAFSKNKVPSREPVIGNCMDRSSPGQAVELPDHNGLGYPARPSVHEHHRPRALQRHHTIQNSDDAYVQLDNLPGMSLVAGKALSSARMSDAVLSQSSLMGSQQFQDGENEECGASLGGHEHPDLSDGSQHLNSSCYPSTCITDILLSYKHPEVSFSMEQAGV [SIK3] | -0.387 | 0.04
MAAAAVSSAKRSLRGELKQRLRAMSAEERLRQSRVLSQKVIAHSEYQKSKRISIFLSMQDEIETEEIIKDIFQRGKICFIPRYRFQSNHMDMVRIESPEEISLLPKTSWNIPQPGEGDVREEALSTGGLDLIFMPGLGFDKHGNRLGRGKGYYDAYLKRCLQHQEVKPYTLALAFKEQICLQVPVNENDMKVDEVLYEDSSTA [MTHFS] | 0.146 | 0.0622
MAAATLTSKLYSLLFRRTSTFALTIIVGVMFFERAFDQGADAIYDHINEGKLWKHIKHKYENK [UQCR10] | -0.233 | 0.0588
MAADLNLEWISLPRSWTYGITRGGRVFFINEEAKSTTWLHPVTGEAVVTGHRRQSTDLPTGWEEAYTFEGARYYINHNERKVTCKHPVTGQPSQDNCIFVVNEQTVATMTSEEKKERPISMINEASNYNVTSDYAVHPMSPVGRTSRASKKVHNFGKRSNSIKRNPNAPVVRRGWLYKQDSTGMKLWKKRWFVLSDLCLFYYRDEKEEGILGSILLPSFQIALLTSEDHINRKYAFKAAHPNMRTYYFCTDTGKEMELWMKAMLDAALVQTEPVKRVDKITSENAPTKETNNIPNHRVLIKPEIQNNQKNKEMSKIEEKKALEAEKYGFQKDGQDRPLTKINSVKLNSLPSEYESGSACPAQTVHYRPINLSSSENKIVNVSLADLRGGNRPNTGPLYTEADRVIQRTNSMQQLEQWIKIQKGRGHEEETRGVISYQTLPRNMPSHRAQIMARYPEGYRTLPRNSKTRPESICSVTPSTHDKTLGPGAEEKRRSMRDDTMWQLYEWQQRQFYNKQSTLPRHSTLSSPKTMVNISDQTMHSIPTSPSHGSIAAYQGYSPQRTYRSEVSSPIQRGDVTIDRRHRAHHPKHVYVPDRRSVPAGLTLQSVSPQSLQGKTLSQDEGRGTLYKYRPEEVDIDAKLSRLCEQDKVVHALEEKLQQLHKEKYTLEQALLSASQEIEMHADNPAAIQTVVLQRDDLQNGLLSTCRELSRATAELERAWREYDKLEYDVTVTRNQMQEQLDHLGEVQTESAGIQRAQIQKELWRIQDVMEGLSKHKQQRGTTEIGMIGSKPFSTVKYKNEGPDYRLYKSEPELTTVAEVDESNGEEKSEPVSEIETSVVKGSHFPVGVVPPRAKSPTPESSTIASYVTLRKTKKMMDLRTERPRSAVEQLCLAESTRPRMTVEEQMERIRRHQQACLREKKKGLNVIGASDQSPLQSPSNLRDNPFRTTQTRRRDDKELDTAIRENDVKPDHETPATEIVQLKETEPQNVDFSKELKKTENISYEMLFEPEPNGVNSVEMMDKERNKDKMPEDVTFSPQDETQTANHKPEEHPEENTKNSVDEQEETVISYESTPEVSRGNQTMAVKSLSPSPESSASPVPSTQPQLTEGSHFMCV [PLEKHA5] | -0.128 | 0.0805
MAAEALAAEAVASRLERQEEDIRWLWSEVERLRDEQLNAPYSCQAEGPCLTREVAQLRAENCDLRHRLCSLRLCLAEERSRQATLESAELEAAQEAGAQPPPSQSQDKDMKKKKMKESEADSEVKHQPIFIKERLKLFEILKKDHQLLLAIYGKKGDTSNIITVRVADGQTVQGEVWKTTPYQVAAEISQELAESTVIAKVNGELWDLDRPLEGDSSLELLTFDNEEAQAVYWHSSAHILGEAMELYYGGHLCYGPPIENGFYYDMFIEDRAVSSTELSALENICKAIIKEKQPFERLEVSKEILLEMFKYNKFKCRILNEKVNTATTTVYRCGPLIDLCKGPHVRHTGKIKTIKIFKNSSTYWEGNPEMETLQRIYGISFPDNKMMRDWEKFQEEAKNRDHRKIGKEQELFFFHDLSPGSCFFLPRGAFIYNTLTDFIREEYHKRDFTEVLSPNMYNSKLWEASGHWQHYSENMFTFEIEKDTFALKPMNCPGHCLMFAHRPRSWREMPIRFADFGVLHRNELSGTLSGLTRVRRFQQDDAHIFCTVEQIEEEIKGCLQFLQSVYSTFGFSFQLNLSTRPENFLGEIEMWNEAEKQLQNSLMDFGEPWKMNPGDGAFYGPKIDIKIKDAIGRYHQCATIQLDFQLPIRFNLTYVSKDGDDKKRPVIIHRAILGSVERMIAILSENYGGKWPFWLSPRQVMVIPVGPTCEKYALQVSSEFFEEGFMADVDLDHSCTLNKKIRNAQLAQYNFILVVGEKEKIDNAVNVRTRDNKIHGEILVTSAIDKLKNLRKTRTLNAEEAF [TARSL2] | -0.498 | 0.191
MAAELRMILYEDDSVQVQYVDGSTLQLSPCGSEFLFEKSPPVSAHPLEQPERIRQRTHFVISTYREQLQRALDFRNSSATCPFLSETIIPSERKKHIFIDITEVRWPSLDTDGTMIYMESGIVKITSLDGHAYLCLPRSQHEFTVHFLCKVSQKSDSSAVLSETNNKAPKDKLVEKTGKICIRGNLPGQRLKNKENEFHCQIMKSKETLKKMSCVNGTEGREELPSPGTKHTCVYTWVKQCWSVAACPEEWKYPLSLALHFHNKISNMSKIDAHITQSRFLTSDISEERGKVVSVLPRALSLSCPVPHLHRWNFCDSLLQRQSDEYSYPELVKMVWYKGVTYRLTHQNMNSIEIYSGDGSVFKSEGAYFGNYFTYYSIQEGSGKREEKTYSVNNLPPDRPGSPFTVGSLIKQATRILQHCVKMRLSLSHNYRICCWKMVPGINDSNILPLVLKESLIPSVGRFLAYSDDKVHAIFLDGITLTLNWNFSSPIEKRQVNQGLNLGWCKLTFPDGQEQLIQIEHPEPYERYVTTVTSWCRRLTQTSPREMPTHSSSSVLQENWSVASELEKIQKFNLLLENSGILNQISNKKNEQQSFDHYKPGSSETLLGEVNENRVSIALKKTSEILHDIDCLLSNSKK [C5ORF34] | -0.136 | -0.0287
MAAGAGAGSAPRWLRALSEPLSAAQLRRLEEHRYSAAGVSLLEPPLQLYWTWLLQWIPLWMAPNSITLLGLAVNVVTTLVLISYCPTATEEAPYWTYLLCALGLFIYQSLDAIDGKQARRTNSCSPLGELFDHGCDSLSTVFMAVGASIAARLGTYPDWFFFCSFIGMFVFYCAHWQTYVSGMLRFGKVDVTEIQIALVIVFVLSAFGGATMWDYTIPILEIKLKILPVLGFLGGVIFSCSNYFHVILHGGVGKNGSTIAGTSVLSPGLHIGLIIILAIMIYKKSATDVFEKHPCLYILMFGCVFAKVSQKLVVAHMTKSELYLQDTVFLGPGLLFLDQYFNNFIDEYVVLWMAMVISSFDMVIYFSALCLQISRHLHLNIFKTACHQAPEQVQVLSSKSHQNNMD [CHPT1] | -0.277 | -0.173
MAAGGSGGRASCPPGVGVGPGTGGSPGPSANAAATPAPGNAAAAAAAAAAAAAAPGPTPPAPPGPGTDAQAAGAERAEEAAGPGAAALQREAAYNWQASKPTVQERFAFLFNNEVLCDVHFLVGKGLSSQRIPAHRFVLAVGSAVFDAMFNGGMATTSTEIELPDVEPAAFLALLKFLYSDEVQIGPETVMTTLYTAKKYAVPALEAHCVEFLKKNLRADNAFMLLTQARLFDEPQLASLCLENIDKNTADAITAEGFTDIDLDTLVAVLERDTLGIREVRLFNAVVRWSEAECQRQQLQVTPENRRKVLGKALGLIRFPLMTIEEFAAGPAQSGILVDREVVSLFLHFTVNPKPRVEFIDRPRCCLRGKECSINRFQQVESRWGYSGTSDRIRFSVNKRIFVVGFGLYGSIHGPTDYQVNIQIIHTDSNTVLGQNDTGFSCDGSASTFRVMFKEPVEVLPNVNYTACATLKGPDSHYGTKGLRKVTHESPTTGAKTCFTFCYAAGNNNGTSVEDGQIPEVIFYT [BTBD2] | -0.317 | 0.0341
MAALGVLESDLPSAVTLLKNLQEQVMAVTAQVKSLTQKVQAGAYPTEKGLSFLEVKDQLLLMYLMDLTHLILDKASGGSLQGHDAVLRLVEIRTVLEKLRPLDQKLKYQIDKLIKTAVTGSLSENDPLRFKPHPSNMMSKLSSEDEEEDEAEDDQSEASGKKSVKGVSKKYVPPRLVPVHYDETEAEREKKRLERAKRRALSSSVIRELKEQYSDAPEEIRDARHPHVTRQSQEDQHRINYEESMMVRLSVSKREKGRRKRANVMSSQLHSLTHFSDISALTGGTVHLDEDQNPIKKRKKIPQKGRKKKGFRRRR [NGDN] | -1.83 | 0.93
MAAPVRLGRKRPLPACPNPLFVRWLTEWRDEATRSRRRTRFVFQKALRSLRRYPLPLRSGKEAKILQHFGDGLCRMLDERLQRHRTSGGDHAPDSPSGENSPAPQGRLAEVQDSSMPVPAQPKAGGSGSYWPARHSGARVILLVLYREHLNPNGHHFLTKEELLQRCAQKSPRVAPGSARPWPALRSLLHRNLVLRTHQPARYSLTPEGLELAQKLAESEGLSLLNVGIGPKEPPGEETAVPGAASAELASEAGVQQQPLELRPGEYRVLLCVDIGETRGGGHRPELLRELQRLHVTHTVRKLHVGDFVWVAQETNPRDPANPGELVLDHIVERKRLDDLCSSIIDGRFREQKFRLKRCGLERRVYLVEEHGSVHNLSLPESTLLQAVTNTQVIDGFFVKRTADIKESAAYLALLTRGLQRLYQGHTLRSRPWGTPGNPESGAMTSPNPLCSLLTFSDFNAGAIKNKAQSVREVFARQLMQVRGVSGEKAAALVDRYSTPASLLAAYDACATPKEQETLLSTIKCGRLQRNLGPALSRTLSQLYCSYGPLT [MUS81] | -0.347 | 0.243
MAAQIPESDQIKQFKEFLGTYNKLTETCFLDCVKDFTTREVKPEETTCSEHCLQKYLKMTQRISMRFQEYHIQQNEALAAKAGLLGQPR [TIMM9] | -0.307 | 0.239
